Laboratory results from the Immune Epitope Database (IEDB).

What was measured:
HLA-A*24:02 [1] = experiment: IEDB peptide-MHC binding, purified MHC/competitive/fluorescence; ≥ and ≤ were set here for values at or beyond the usual limits of such assays; conditions: source organism: West Nile virus
HLA-A*24:02 [2] = experiment: IEDB peptide-MHC binding, purified MHC/competitive/fluorescence; filed as Kd, often an IC50 or EC50 that approximates it; ≥ and ≤ were set here for values at or beyond the usual limits of such assays
HLA-A*01:01 = experiment: IEDB peptide-MHC binding, purified MHC/direct/fluorescence; filed as Kd, often an IC50 or EC50 that approximates it; ≥ and ≤ were set here for values at or beyond the usual limits of such assays
HLA-A*02:01 = experiment: as above
HLA-A*02:03 = experiment: as above; conditions: source organism: Influenza A virus (A/Taiwan/2/2006(H1N1))
HLA-A*02:11 = experiment: as above; conditions: source organism: Influenza A virus (A/Taiwan/2/2006(H1N1))
HLA-A*02:12 = experiment: as above; conditions: source organism: Influenza A virus (A/Taiwan/2/2006(H1N1))
HLA-A*02:19 = experiment: as above; conditions: source organism: Influenza A virus (A/Taiwan/2/2006(H1N1))
HLA-A*03:01 = experiment: as above
HLA-A*11:01 = experiment: as above
HLA-A*23:01 = experiment: as above; conditions: source organism: Influenza A virus (A/Hong Kong/213/2003(H5N1))
HLA-A*24:02 [3] = experiment: as above; conditions: source organism: Influenza A virus (A/Hong Kong/213/2003(H5N1))
HLA-A*24:03 = experiment: as above; conditions: source organism: Influenza A virus (A/Hong Kong/213/2003(H5N1))
HLA-A*26:02 [4] = experiment: as above; conditions: source organism: Influenza A virus (A/Taiwan/2/2006(H1N1))
HLA-A*26:03 [5] = experiment: as above; conditions: source organism: Influenza A virus (A/Taiwan/2/2006(H1N1))
HLA-A*31:01 = experiment: as above
HLA-B*07:02 = experiment: as above
HLA-B*08:01 = experiment: as above
HLA-B*08:02 = experiment: as above
HLA-B*15:01 [6] = experiment: as above
HLA-B*15:09 = experiment: as above; conditions: source organism: Influenza A virus (A/Taiwan/2/2006(H1N1))
HLA-B*15:17 [7] = experiment: as above; conditions: source organism: Influenza A virus (A/Hong Kong/213/2003(H5N1))
HLA-B*27:05 = experiment: as above
HLA-B*57:01 = experiment: as above
HLA-B*58:01 = experiment: as above
HLA-A*02:06 = experiment: IEDB peptide-MHC binding, purified MHC/competitive/fluorescence; filed as Kd, often an IC50 or EC50 that approximates it; ≥ and ≤ were set here for values at or beyond the usual limits of such assays; conditions: source organism: Influenza A virus (A/X-31(H3N2))
HLA-A*68:02 [8] = experiment: as above; conditions: source organism: Influenza A virus (A/X-31(H3N2))
HLA-B*18:01 [9] = experiment: as above
HLA-B*39:01 [10] = experiment: as above; conditions: source organism: Influenza A virus (A/X-31(H3N2))
HLA-A*26:01 [11] = experiment: IEDB peptide-MHC binding, purified MHC/direct/fluorescence; filed as Kd, often an IC50 or EC50 that approximates it; ≥ and ≤ were set here for values at or beyond the usual limits of such assays; conditions: source organism: Bacillus anthracis str. Sterne
HLA-B*18:01 [12] = experiment: as above; conditions: source organism: Bacillus anthracis str. Sterne
HLA-B*27:03 = experiment: as above; conditions: source organism: Bacillus anthracis str. Sterne
HLA-B*39:01 [13] = experiment: as above; conditions: source organism: Bacillus anthracis str. Sterne
HLA-B*46:01 = experiment: as above; conditions: source organism: Bacillus anthracis str. Sterne
HLA-A*32:15 = experiment: IEDB peptide-MHC binding, purified MHC/competitive/fluorescence; filed as Kd, often an IC50 or EC50 that approximates it; ≥ and ≤ were set here for values at or beyond the usual limits of such assays; conditions: source organism: Bacillus anthracis str. A0488
HLA-B*15:42 = experiment: as above; conditions: source organism: Bacillus anthracis str. A0488
HLA-B*45:06 = experiment: as above; conditions: source organism: Bacillus anthracis str. A0488
HLA-B*83:01 = experiment: as above; conditions: source organism: Bacillus anthracis str. A0488
HLA-C*14:02 = experiment: as above; conditions: source organism: Bacillus anthracis str. A0488
HLA-A*68:02 [14] = experiment: IEDB peptide-MHC binding, purified MHC/direct/fluorescence; filed as Kd, often an IC50 or EC50 that approximates it; ≥ and ≤ were set here for values at or beyond the usual limits of such assays; conditions: source organism: Vibrio parahaemolyticus
HLA-B*08:03 = experiment: as above; conditions: source organism: Vibrio parahaemolyticus RIMD 2210633
HLA-B*40:01 = experiment: as above; conditions: source organism: Vibrio parahaemolyticus
HLA-B*48:01 = experiment: as above; conditions: source organism: Vibrio parahaemolyticus
HLA-A*26:01 [15] = experiment: IEDB peptide-MHC binding, purified MHC/competitive/fluorescence; filed as Kd, often an IC50 or EC50 that approximates it; ≥ and ≤ were set here for values at or beyond the usual limits of such assays; conditions: source organism: Vibrio parahaemolyticus RIMD 2210633
HLA-A*26:02 [16] = experiment: as above; conditions: source organism: Vibrio parahaemolyticus RIMD 2210633
HLA-A*26:03 [17] = experiment: as above; conditions: source organism: Vibrio parahaemolyticus RIMD 2210633
HLA-B*15:01 [18] = experiment: as above; conditions: source organism: Vibrio parahaemolyticus RIMD 2210633
HLA-B*15:17 [19] = experiment: as above; conditions: source organism: Vibrio parahaemolyticus RIMD 2210633
HLA-B*35:01 = experiment: as above; conditions: source organism: Vibrio parahaemolyticus RIMD 2210633
[20] = source organism: Influenza A virus (A/Hong Kong/213/2003(H5N1))
[21] = source organism: Influenza A virus (A/Taiwan/2/2006(H1N1))
[22] = source organism: Influenza A virus (A/X-31(H3N2))
[23] = source organism: Bacillus anthracis str. Sterne
[24] = source organism: Vibrio parahaemolyticus
[25] = source organism: Vibrio parahaemolyticus RIMD 2210633

## RYLVKTESW
HLA-A*24:02 [1]
  IC50: 264 nM
HLA-A*24:02 [2]; source organism: West Nile virus
  Kd: 0.4 nM

## CFMYSDFHF
HLA-A*01:01; [20]
  Kd: ≥ 20000 nM
HLA-A*02:01; [20]
  Kd: 141 nM
HLA-A*02:03
  Kd: 307 nM
HLA-A*02:11
  Kd: 126 nM
HLA-A*02:12
  Kd: 243 nM
HLA-A*02:19
  Kd: 268 nM
HLA-A*03:01; [20]
  Kd: ≥ 20000 nM
HLA-A*11:01; [20]
  Kd: ≥ 20000 nM
HLA-A*23:01
  Kd: ≤ 1 nM
HLA-A*24:02 [3]
  Kd: 21 nM
HLA-A*24:03
  Kd: 7.5 nM
HLA-A*26:02 [4]
  Kd: ≥ 20000 nM
HLA-A*26:03 [5]
  Kd: ≥ 20000 nM
HLA-A*31:01; [20]
  Kd: ≥ 20000 nM
HLA-B*07:02; [20]
  Kd: ≥ 20000 nM
HLA-B*08:01; [21]
  Kd: ≥ 20000 nM
HLA-B*08:02; [21]
  Kd: ≥ 20000 nM
HLA-B*15:01 [6]; [20]
  Kd: ≥ 20000 nM
HLA-B*15:09
  Kd: ≥ 20000 nM
HLA-B*15:17 [7]
  Kd: ≥ 20000 nM
HLA-B*27:05; [20]
  Kd: ≥ 20000 nM
HLA-B*57:01; [20]
  Kd: ≥ 20000 nM
HLA-B*58:01; [20]
  Kd: 74.5 nM
HLA-A*02:06
  Kd: 49.2 nM
HLA-A*68:02 [8]
  Kd: 210 nM
HLA-B*18:01 [9]; [22]
  Kd: 1990 nM
HLA-B*39:01 [10]
  Kd: ≥ 20000 nM

## TTYVYTLPV
HLA-A*02:01; [23]
  Kd: 90 nM
HLA-A*26:01 [11]
  Kd: ≥ 20000 nM
HLA-B*15:01 [6]; [23]
  Kd: ≥ 20000 nM
HLA-B*18:01 [12]
  Kd: ≥ 20000 nM
HLA-B*27:03
  Kd: ≥ 20000 nM
HLA-B*39:01 [13]
  Kd: ≥ 20000 nM
HLA-B*46:01
  Kd: ≥ 20000 nM
HLA-B*57:01; [23]
  Kd: ≥ 20000 nM
HLA-A*32:15
  Kd: 370 nM
HLA-B*15:42
  Kd: ≥ 5000 nM
HLA-B*45:06
  Kd: ≥ 5000 nM
HLA-B*83:01
  Kd: ≥ 5000 nM
HLA-C*14:02
  Kd: 3.5 nM

## KTHIHIFSF
HLA-A*24:02 [2]; [22]
  Kd: 85.5 nM

## ILRPLGIEY
HLA-A*01:01; [24]
  Kd: 2020 nM
HLA-A*02:01; [24]
  Kd: ≥ 20000 nM
HLA-A*03:01; [24]
  Kd: 116 nM
HLA-A*11:01; [24]
  Kd: ≥ 20000 nM
HLA-A*31:01; [24]
  Kd: ≥ 20000 nM
HLA-A*68:02 [14]
  Kd: ≥ 20000 nM
HLA-B*07:02; [24]
  Kd: ≥ 20000 nM
HLA-B*08:01; [25]
  Kd: ≥ 20000 nM
HLA-B*08:02; [25]
  Kd: ≥ 20000 nM
HLA-B*08:03
  Kd: ≥ 20000 nM
HLA-B*27:05; [24]
  Kd: ≥ 20000 nM
HLA-B*40:01
  Kd: ≥ 20000 nM
HLA-B*48:01
  Kd: ≥ 20000 nM
HLA-B*57:01; [24]
  Kd: 1530 nM
HLA-B*58:01; [24]
  Kd: ≥ 20000 nM
HLA-A*26:01 [15]
  Kd: 478 nM
HLA-A*26:02 [16]
  Kd: 403 nM
HLA-A*26:03 [17]
  Kd: ≥ 20000 nM
HLA-B*15:01 [18]
  Kd: 282 nM
HLA-B*15:17 [19]
  Kd: 48.8 nM
HLA-B*18:01 [9]; [25]
  Kd: 159 nM
HLA-B*35:01
  Kd: 226 nM
